Source: the Human Domainome abundance scans (Beltran et al. 2025)
± gives the uncertainty stated by the source.

B1: Integrator complex subunit 12, residues 155 to 213; numbered along this chain, Q96CB8 (parent)
chain: AMEMGLACVVCRQMMVASGNQLVECQECHNLYHRDCHKPQVTDKEANDPRLVWYCARCT

Variants of: B1
Assay: abundance fitness (aPCA) (normalised: wild type 0, dead -1); higher = more abundant; growth selection in yeast, the domain comes from the species named
Conditions: Homo sapiens

Row | Variant | abundance fitness
1 | AMEMGLACVVCRQMMVASGNQLVECQECHNLYHRDCHKPQVTDKEANDPRLVWYCVRCT [A56V] | -0.128 ± 0.036
2 | AMEMGLACVVCRQMMVASGNQLVECQECHNLYHRDCHKPQVTDKEANDPRLVWYCKRCT [A56K] | -0.169 ± 0.057
3 | AMEMGLACVVCRQMMVASGNQLVECQECHNLYHRDCHKPQVTDKEANDPRLVWYCYRCT [A56Y] | -0.136 ± 0.079
4 | AMEMGLACVVCRQMMVASGNQLVECQECHNLYHRDCHKPQVTDKEANDPRLVWYCNRCT [A56N] | -0.209 ± 0.11
5 | AMEMGLACVVCRQMMVASGNQLVECQECHNLYHRDCHKPQVTDKEANDPRLVWYCERCT [A56E] | -0.08 ± 0.043
6 | AMEMGLACVVCRQMMVASGNQLVECQECHNLYHRDCHKPQVTDKEANDPRLVWYCPRCT [A56P] | -0.185 ± 0.054
7 | AMEMGLACVVCRQMMVASGNQLVECQECHNLYHRDCHKPQVTDKEANDPRLVWYCMRCT [A56M] | -0.02 ± 0.055
8 | AMEMGLACVVCRQMMVASGNQLVECQECHNLYHRDCHKPQVTDKEANDPRLVWYCWRCT [A56W] | -0.134 ± 0.05
9 | AMEMGLACVVCRQMMVASGNQLVECQECHNLYHRDCHKPQVTDKEANDPRLVWYCCRCT [A56C] | -0.02 ± 0.075
10 | AMEMGLACVVCRQMMVASGNQLVECQECHNLYHRDCHKPQVTDKEANDPRLVWYCRRCT [A56R] | -0.12 ± 0.041
11 | AMEMGLACVVCRQMMVASGNQLVECQECHNLYHRDCHKPQVTDKEANDPRLVWYCDRCT [A56D] | -0.273 ± 0.064
12 | AMEMGLACVVCRQMMVASGNQLVECQECHNLYHRDCHKPQVTDKEANDPRLVWYCGRCT [A56G] | -0.057 ± 0.039
13 | AMEMGLACVVCRQMMVASGNQLVECQECHNLYHRDCHKPQVTDKEANDPRLVWYCHRCT [A56H] | -0.031 ± 0.11
14 | AMEMGLACVVCRQMMVASGNQLVECQECHNLYHRDCHKPQVTDKEANDPRLVWYCFRCT [A56F] | -0.265 ± 0.069
15 | AMEMGLACVVCRQMMVASGNQLVECQECHNLYHRDCHKPQVTDKEANDPRLVWYCTRCT [A56T] | -0.054 ± 0.05
16 | AMEMGLACVVCRQMMVASGNQLVECQECHNLYHRDCHKPQVTDKEANDPRLVWYCSRCT [A56S] | -0.054 ± 0.047
17 | AMEMGLACVVCRQMMVASGNQLVECQECHNLYHRDCHKPQVTDKEANDPRLVWYCARWT [C58W] | -1.26 ± 0.12
18 | AMEMGLACVVCRQMMVASGNQLVECQECHNLYHRDCHKPQVTDKEANDPRLVWYCARHT [C58H] | -0.287 ± 0.075
19 | AMEMGLACVVCRQMMVASGNQLVECQECHNLYHRDCHKPQVTDKEANDPRLVWYCARGT [C58G] | -0.851 ± 0.059
20 | AMEMGLACVVCRQMMVASGNQLVECQECHNLYHRDCHKPQVTDKEANDPRLVWYCARIT [C58I] | -1.39 ± 0.24
21 | AMEMGLACVVCRQMMVASGNQLVECQECHNLYHRDCHKPQVTDKEANDPRLVWYCARAT [C58A] | -0.869 ± 0.07
22 | AMEMGLACVVCRQMMVASGNQLVECQECHNLYHRDCHKPQVTDKEANDPRLVWYCARFT [C58F] | -1.11 ± 0.18
23 | AMEMGLACVVCRQMMVASGNQLVECQECHNLYHRDCHKPQVTDKEANDPRLVWYCARPT [C58P] | -0.762 ± 0.13

Row | Variant | abundance fitness
24 | AMEMGLACVVCRQMMVASGNQLVECQECHNLYHRDCHKPQVTDKEANDPRLVWYCARTT [C58T] | -0.918 ± 0.085
25 | AMEMGLACVVCRQMMVASGNQLVECQECHNLYHRDCHKPQVTDKEANDPRLVWYCARNT [C58N] | -1.05 ± 0.18
26 | AMEMGLACVVCRQMMVASGNQLVECQECHNLYHRDCHKPQVTDKEANDPRLVWYCARVT [C58V] | -1.04 ± 0.091
27 | AMEMGLACVVCRQMMVASGNQLVECQECHNLYHRDCHKPQVTDKEANDPRLVWYCARRT [C58R] | -0.929 ± 0.061
28 | AMEMGLACVVCRQMMVASGNQLVECQECHNLYHRDCHKPQVTDKEANDPRLVWYCARET [C58E] | -0.906 ± 0.099
29 | AMEMGLACVVCRQMMVASGNQLVECQECHNLYHRDCHKPQVTDKEANDPRLVWYCARST [C58S] | -1.1 ± 0.074
30 | AMEMGLACVVCRQMMVASGNQLVECQECHNLYHRDCHKPQVTDKEANDPRLVWYCARMT [C58M] | -1.09 ± 0.13
31 | AMEMGLACVVCRQMMVASGNQLVECQECHNLYHRDCHKPQVTDKEANDPRLVWYCARDT [C58D] | -0.8 ± 0.093
32 | AMEMGLACVVCRQMMVASGNQLVECQECHNLYHRDCHKPQVTDKEANDPRLVWYCARYT [C58Y] | -1.08 ± 0.12
33 | AMEMGLACVVCRQMMVASGNQLVECQECHNLYHRDCHKPQVTDKEANDPRLVWYCARCN [T59N] | -0.205 ± 0.16
34 | AMEMGLACVVCRQMMVASGNQLVECQECHNLYHRDCHKPQVTDKEANDPRLVWYCARCC [T59C] | -0.25 ± 0.18
35 | AMEMGLACVVCRQMMVASGNQLVECQECHNLYHRDCHKPQVTDKEANDPRLVWYCARCA [T59A] | 0.016 ± 0.074
36 | AMEMGLACVVCRQMMVASGNQLVECQECHNLYHRDCHKPQVTDKEANDPRLVWYCARCV [T59V] | -0.227 ± 0.12
37 | AMEMGLACVVCRQMMVASGNQLVECQECHNLYHRDCHKPQVTDKEANDPRLVWYCARCP [T59P] | -0.142 ± 0.083
38 | AMEMGLACVVCRQMMVASGNQLVECQECHNLYHRDCHKPQVTDKEANDPRLVWYCARCR [T59R] | -0.002 ± 0.055
39 | AMEMGLACVVCRQMMVASGNQLVECQECHNLYHRDCHKPQVTDKEANDPRLVWYCARCS [T59S] | 0.045 ± 0.064
40 | AMEMGLACVVCRQMMVASGNQLVECQECHNLYHRDCHKPQVTDKEANDPRLVWYCARCW [T59W] | -0.387 ± 0.12
41 | AMEMGLACVVCRQMMVASGNQLVECQECHNLYHRDCHKPQVTDKEANDPRLVWYCARCH [T59H] | 0.035 ± 0.077
42 | AMEMGLACVVCRQMMVASGNQLVECQECHNLYHRDCHKPQVTDKEANDPRLVWYCARCY [T59Y] | -0.218 ± 0.21
43 | AMEMGLACVVCRQMMVASGNQLVECQECHNLYHRDCHKPQVTDKEANDPRLVWYCARCL [T59L] | -0.249 ± 0.068
44 | AMEMGLACVVCRQMMVASGNQLVECQECHNLYHRDCHKPQVTDKEANDPRLVWYCARCG [T59G] | -0.13 ± 0.082
45 | AMEMGLACVVCRQMMVASGNQLVECQECHNLYHRDCHKPQVTDKEANDPRLVWYCARCI [T59I] | -0.103 ± 0.089
